The subject of experiment [1] is E. coli serotype O157:H7 (strain ATCC43895). The experiment is classed as cell-based.
For experiment [2], the system named is E. coli O157:H7 strain ATCC43895. Kind of experiment: Microbial adhesion assay: detachment of 3H-thymidine labeled bacteria from beef tissue by wash. Format: cell-based.

We go through 1 molecule from patent US7375080B1, “Immobilized lactoferrin (Im-LF) antimicrobial agents and uses thereof” (priority 1999, dated 2008).

Where “and” joins values, the source holds several entries; their conditions need not be identical. Equal values may be shown once.

B1: lactoferrin (protein, UniProt P24627 20-708, looked up)
Lactotransferrin: APRKNVRWCTISQPEWFKCRRWQWRMKKLGAPSITCVRRAFALECIRAIAEKKADAVTLDGGMVFEAGRDPYKLRPVAAEIYGTKESPQTHYYAVAVVKKGSNFQLDQLQGRKSCHTGLGRSAGWIIPMGILRPYLSWTESLEPLQGAVAKFFSASCVPCIDRQAYPNLCQLCKGEGENQCACSSREPYFGYSGAFKCLQDGAGDVAFVKETTVFENLPEKADRDQYELLCLNNSRAPVDAFKECHLAQVPSHAVVARSVDGKEDLIWKLLSKAQEKFGKNKSRSFQLFGSPPGQRDLLFKDSALGFLRIPSKVDSALYLGSRYLTTLKNLRETAEEVKARYTRVVWCAVGPEEQKKCQQWSQQSGQNVTCATASTTDDCIVLVLKGEADALNLDGGYIYTAGKCGLVPVLAENRKSSKHSSLDCVLRPTEGYLAVAVVKKANEGLTWNSLKDKKSCHTAVDRTAGWNIPMGLIVNQTGSCAFDEFFSQSCAPGADPKSRLCALCAGDDQGLDKCVPNSKEKYYGYTGAFRCLAEDVGDVAFVKNDTVWENTNGESTADWAKNLNREDFRLLCLDGTRKPVTEAQSCHLAVAPNHAVVSRSDRAAHVKQVLLHQQALFGKNGKNCPDKFCLFKSETKNLLFNDNTECLAKLGGRPTYEEYLGTEYVTAIANLKKCSTSPLLEACAFLTR
Regarding B1, in experiment [1], the “GROWTH (%)” value is reported as 36% and the “effect on growth of the E. coli” value is listed as “reduced the growth”. In addition, in experiment [2], the “% BACTERIAL CELLS DETACHED IN 1-MINUTE” value is 90% and 85% and 78%; the “bacterial detachment” value is listed as “effective bacterial detachment”.
